According to PMC6987454:
“And” between values parts separate entries of the source, which are not always exact repeats. Equal values may be shown once. Values belong to the substance of their own block, whether it stands above or below them.

Columns and labels:
[1] = target: AtCGE1 (Arabidopsis chloroplast GrpE homologue 1), mature region, 6xHis-tagged (Arabidopsis); test: cross-linking; 5 uM purified protein in common buffer [25 mM Hepes-KOH (pH 7.8), 5 mM MgCl2, 5 mM DTT] crosslinked with glutaraldehyde at 0.05, 0.1 and 0.2% for 10 min; 4-12% SDS-PAGE and CBR staining
[2] = target: AtCGE2 (Arabidopsis chloroplast GrpE homologue 2), mature region, 6xHis-tagged (Arabidopsis); test: as above
[3] = target: AtCGE1 (Arabidopsis chloroplast GrpE homologue 1), mature region, 6xHis-tagged (Arabidopsis); test: pull-down; AtCGE1-6xHis and tag-free AtCGE2 co-expressed in E. coli BL21(DE3); crude protein extract bound to Talon beads, stringent wash, elution; bands seen on PAGE

Sequence of AtCGE1 (Arabidopsis chloroplast GrpE homologue 1), mature region, 6xHis-tagged (Arabidopsis) (main, as listed by the source): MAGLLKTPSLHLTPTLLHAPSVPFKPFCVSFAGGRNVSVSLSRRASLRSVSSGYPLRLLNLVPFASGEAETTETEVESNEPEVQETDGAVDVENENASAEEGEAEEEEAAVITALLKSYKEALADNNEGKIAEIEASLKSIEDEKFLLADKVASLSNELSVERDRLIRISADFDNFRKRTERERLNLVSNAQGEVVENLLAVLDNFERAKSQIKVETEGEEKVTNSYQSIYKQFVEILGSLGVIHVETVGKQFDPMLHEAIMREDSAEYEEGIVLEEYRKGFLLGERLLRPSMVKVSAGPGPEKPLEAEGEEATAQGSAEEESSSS

stoichiometry N [1]: 2 and 4
Substance: AtCGE1 (Arabidopsis chloroplast GrpE homologue 1), mature region, 6xHis-tagged (natural protein)

stoichiometry N [2]: 2 and 4
Substance: AtCGE2 (Arabidopsis chloroplast GrpE homologue 2), mature region, 6xHis-tagged (natural protein)

stoichiometry N [3]: 1 molar ratio
Substance: AtCGE2 (Arabidopsis chloroplast GrpE homologue 2), mature region, tag-free, co-expressed with AtCGE1-6xHis (natural protein)
